Sequences and labels used below:
B1: LLSDPIPEV (SEQ ID NO: 52) (peptide)
peptide: LLSDPIPEV
B2: RLSELGITQA (SEQ ID NO: 57) (peptide)
peptide: RLSELGITQA
B3: LLWDPSTGKQV (SEQ ID NO: 53) (peptide)
peptide: LLWDPSTGKQV
B4: SVFPGARLL (SEQ ID NO: 62) (peptide)
peptide: SVFPGARLL
B5: VIWGTDVNV (SEQ ID NO: 67) (peptide)
peptide: VIWGTDVNV
B6: VMVDGKPVNL (SEQ ID NO: 73) (peptide)
peptide: VMVDGKPVNL
B7: SLSESFFMV (SEQ ID NO: 59) (peptide)
peptide: SLSESFFMV
B8: RLFPGSSFL (SEQ ID NO: 77) (peptide)
peptide: RLFPGSSFL
B9: ALVDIVRSL (SEQ ID NO: 7) (peptide)
peptide: ALVDIVRSL
B10: SMYDGLLQA (SEQ ID NO: 61) (peptide)
peptide: SMYDGLLQA
B11: LLGPAGARA (SEQ ID NO: 51) (peptide)
peptide: LLGPAGARA
B12: SVTGIIVGV (SEQ ID NO: 63) (peptide)
peptide: SVTGIIVGV
B13: YIDKDLEYV (SEQ ID NO: 74) (peptide)
peptide: YIDKDLEYV
B14: VMASPGGLSAV (SEQ ID NO: 72) (peptide)
peptide: VMASPGGLSAV
B15: NLAPAPLNA (SEQ ID NO: 55) (peptide)
peptide: NLAPAPLNA
B16: SLWEDYPHV (SEQ ID NO: 60) (peptide)
peptide: SLWEDYPHV
B17: VLFSGSLRL (SEQ ID NO: 69) (peptide)
peptide: VLFSGSLRL
B18: VLGVIWGV (SEQ ID NO: 70) (peptide)
peptide: VLGVIWGV
B19: NLIGVTAEL (SEQ ID NO: 56) (peptide)
peptide: NLIGVTAEL
B20: RQYPWGVVQV (SEQ ID NO: 58) (peptide)
peptide: RQYPWGVVQV
B21: VLLPEGGITAI (SEQ ID NO: 71) (peptide)
peptide: VLLPEGGITAI
B22: ALTGIPLPLI (SEQ ID NO: 6) (peptide)
peptide: ALTGIPLPLI
B23: TLNEKLTAL (SEQ ID NO: 65) (peptide)
peptide: TLNEKLTAL
B24: VLFDVTGQV (SEQ ID NO: 68) (peptide)
peptide: VLFDVTGQV
B25: TLFSEPKFAQV (SEQ ID NO: 64) (peptide)
peptide: TLFSEPKFAQV
B26: LTQPGPIASA (SEQ ID NO: 54) (peptide)
peptide: LTQPGPIASA
B27: ALLTGIISKA (SEQ ID NO: 5) (peptide)
peptide: ALLTGIISKA

This test concerns the target T1, HLA-A*02:01 (human).
T1 construct: the tested peptide takes its place; also called peptide-receptive MHC molecules; MHC class I
The test is described as follows: UV-ligand exchange, anti-β2m ELISA; grade of peptide exchange yield. The text has this:
Candidate peptides for T cell based therapies according to the present invention were further tested for their MHC binding capacity (affinity). The individual peptide-MHC complexes were produced by UV-ligand exchange, where a UV-sensitive peptide is cleaved upon UV-irradiation, and exchanged with the peptide of interest as analyzed. Only peptide candidates that can effectively bind and stabilize the peptide-receptive MHC molecules prevent dissociation of the MHC complexes. To determine the yield of the exchange reaction, an ELISA was performed based on the detection of the light chain (β2m) of stabilized MHC complexes. The assay was performed as generally described in Rodenko et al. (Rodenko et al., 2006).
96 well MAXISorp plates (NUNC) were coated over night with 2 ug/ml streptavidin in PBS at room temperature, washed 4× and blocked for 1h at 37° C. in 2% BSA containing blocking buffer. Refolded HLA-A*02:01/MLA-001 monomers served as standards, covering the range of 15-500 ng/ml. Peptide-MHC monomers of the UV-exchange reaction were diluted 100 fold in blocking buffer. Samples were incubated for 1 h at 37° C., washed four times, incubated with 2 ug/ml HRP conjugated anti-β2m for 1h at 37° C., washed again and detected with TMB solution that is stopped with […]. Absorption was measured at 450 nm. Candidate peptides that show a high exchange yield (preferably higher than 50%, most preferred higher than 75%) are generally preferred for a generation and production of antibodies or fragments thereof, and/or T cell receptors or fragments thereof, as they show sufficient avidity to the MHC molecules and prevent dissociation of the MHC complexes.
Background: ELISA stands for enzyme-linked immunosorbent assay.
Regarding B1, the peptide exchange yield fell in the range of 50 to 75%.

As for B2, the peptide exchange yield lay within 50 to 75%.

With B3, the peptide exchange yield was in the range of 50 to 75%.

B4 gave a peptide exchange yield of 10 to 20%.

As to B5, the peptide exchange yield is at least 75%.

The molecule B6 came in with a peptide exchange yield of at least 75%.

As for B7, the peptide exchange yield lay within 50 to 75%.

On to B8, for which the peptide exchange yield was at least 75%.

Take B9: the peptide exchange yield was 50 to 75%.

In turn, B10 yielded a peptide exchange yield of 20 to 50%.

As to B11, the peptide exchange yield is 20 to 50%.

B12 yielded a peptide exchange yield of at least 75%.

As for B13, the peptide exchange yield was 50 to 75%.

Molecule B14 yielded a peptide exchange yield of 50 to 75%.

In the case of B15, the peptide exchange yield was 20 to 50%.

In turn, B16 gave a peptide exchange yield of at least 75%.

B17: the peptide exchange yield is 50 to 75%.

Turning to B18, the peptide exchange yield is at least 75%.

Molecule B19 had a peptide exchange yield of 20 to 50%.

Take B20: the peptide exchange yield fell in the range of 20 to 50%.

Molecule B21 came in with a peptide exchange yield of 50 to 75%.

B22 showed a peptide exchange yield of 50 to 75%.

With B23, the peptide exchange yield lay within 50 to 75%.

Molecule B24 came in with a peptide exchange yield of 50 to 75%.

Molecule B25 returned a peptide exchange yield of at least 75%.

For B26, the peptide exchange yield fell in the range of 50 to 75%.

The molecule B27 gave a peptide exchange yield of 50 to 75%.
